Several values for one entry are separate records, joined by “and”; a condition that tells them apart may be missing. Identical values can stand only once.
B1: 4133-6294 BYbe: anti-CD45 BYbe (Fab-scFv): 4133 Fab HC-G4S linker-6294 scFv heavy chain paired with 4133 light chain (antibody)
heavy: QEQLVESGGGLVQPEGSLTLTCTASGFSFSGNYYMCWVRQAPGKGLEWIGCLYTGSSGSTYYASWAKGRFTISKTSSTTVTLQMTSLTAADTATYFCARDLGYEIDGYGGLWGQGTLVTVSSGQPKAPSVFPLAPCCGDTPSSTVTLGCLVKGYLPEPVTVTWNSGTLTNGVRTFPSVRQSSGLYSLSSVVSVTSSSQPVTCNVAHPATNTKVDKTVAPSTCSKPGGGGSGGGGSEVQLVESGAELARPGASVKMSCKASGYTFTSYTMHWVKQRPGQCLEWIGYINPSSGYTEYNQKFKDKTTLTADKSSSTAYLQLSSLTSEDSAVYYCARVGDGFYPSWLAYWGQGTLVTVSSGGGGSGGGGSGGGGSGGGGSDIQMTQSPKFLLVSAGDRVTITCKASQSVRNDVAWYQQKPGQSPKLLIFYASKRYTGVPDRFTGSGYGTDFTFTISTVQAEDLAVYFCQQDYSSPTTFGCGTKLEIK
light: AQVLTQTPSPVSAVVGGTVSISCQASQSVYNNNNLSWYQQKPGQPPKLLIYDASKLASGVPSRFKGSGSGTQFTLTISGVQCDDAATYYCLGGYYSSGWYFAFGGGTKVVVKRTPVAPTVLIFPPAADQVATGTVTIVCVANKYFPDVTVTWEVDGTTQTTGIENSKTPQNSADCTYNLSSTLTLTSTQYNSHKEYTCKVTQGTTSVVQSFNRGDC

How the values were obtained:
Format in all cases: cell-based
Raji = test: Apoptosis of cell lines: Raji; conditions: 21 hrs
Source text: (§1) The following cell lines representing various leukaemia's and lymphoma's, as classified by ATCC (www.atcc.org/), were used: Jurkat—acute T-cell leukaemia; CCRF-SB—B-cell acute lymphoblastic leukaemia; MC116—B-cell undifferentiated lymphoma; Raji, Ramos—Burkitt lymphoma (rare form of B-cell non-Hodgkin lymphoma); SU-DHL-4, SU-DHL-5, SU-DHL-8, NU-DUL-1, OCI-Ly3—Diffuse large B-cell lymphoma; THP-1—acute monocytic leukaemia; and Dakiki—B cell nasopharyngeal carcinoma.
(§2) Prior to an assay being performed, 1 vial of each of the above cell lines was thawed in a 37° C. water bath and then added to 20 ml complete media (RPMI 1640+2 mM GlutaMAX+1% Pen/Strep, all previous supplied by Invitrogen, +10% Fetal Bovine Serum (FBS), Sigma Aldrich). Cells were spun (500 g, 5 min, at RT) and re-suspended in 20 ml complete media to wash and spun again. Cells were resuspended in 10 ml complete media and then counted using a ChemoMetec NucleoCounter NC-3000. 6×10^6 cells of each cell line were spun (500 g, 5 min, at RT) and re-suspended in 4.8 ml complete media. 1×10^5 cells in 80 μl were then added to each well of a Corning Costar 96-well, cell culture treated, U-shaped-bottom microplate (cat no. 07-200-95). The plate was rested in a 37° C., 5% CO2 incubator for 2 hrs
(§3) Stocks of 4133-6294 BYbe and NegCtrl BYbe at 2500 nM in complete media were prepared. In a Greiner 96-well non-binding microplate, both reagents were serially diluted in complete media 1 in 5, seven times to produce to form an 8-point dose curve. […] (final well concentrations 500-0.0064 nM) was added to the cells. Each concentration was produced in triplicate. Camptothecin (cat no. C9911-100MG, Sigma Aldrich) and Staurosporine (cat no. 56942-200UL, Sigma Aldrich) were added as positive controls of apoptosis. Both were diluted in complete media and added to the well to produce a final concentration of 5 μM. Additional positive controls included anti-thymocyte globulin (ATG, indicated by FDA for use in conditioning regimens), Rituximab (anti-CD20, indicated by FDA for Non-Hodgkin Lymphoma and Chronic Lymphocytic Leukaemia) and Campath (anti-CD52, indicated by FDA for B-cell Chronic Lymphocytic Leukaemia). Anti-thymocyte globulin, Rituximab and Campath were added to the wells to produce final concentrations of 200 μg/ml, 500 nM and 200 μg/ml, respectively. […]
(§4) Following the incubation, the plates were spun at 500 g, 5 min, RT, the buffer was aspirated with a BioTek ELx405 microplate washer, and the cells were re-suspended in FACS buffer (PBS+1% bovine serum albumin (BSA)+0.1% NaN3+2 mM EDTA, Sigma Aldrich) to wash and then re-spun and buffer was aspirated to leave the cells in 20 μl residual media. […] Cells were analysed using the Bio-Rad ZE5 Cell Analyzer. […]

SU-DHL-4 = test: Apoptosis of cell lines: SU-DHL-4; conditions: SU-DHL-4, 21 hrs
Source text: as §1, §2, §3, §4

SU-DHL-8 = test: Apoptosis of cell lines: SU-DHL-8; conditions: SU-DHL-8, 21 hrs
Source text: as §1, §2, §3, §4

OCI-Ly3 = test: Apoptosis of cell lines: OCI-Ly3; conditions: OCI-Ly3, 21 hrs
Source text: as §1, §2, §3, §4

Molecule	Campath mean (%) cell reduction (Raji; 200 μg/ml) [%]	Campath mean (%) cell reduction (SU-DHL-4; 200 μg/ml) [%]	Campath mean (%) cell reduction (SU-DHL-8; 200 μg/ml) [%]	Campath mean (%) cell reduction (OCI-Ly3; 200 μg/ml) [%]	Bottom (%) level of % cell reduction (Raji) [%]	Top (%) level of % cell reduction (Raji) [%]	Bottom (%) level of % cell reduction (SU-DHL-4) [%]	Top (%) level of % cell reduction (SU-DHL-4) [%]	Bottom (%) level of % cell reduction (SU-DHL-8) [%]	Top (%) level of % cell reduction (SU-DHL-8) [%]	Bottom (%) level of % cell reduction (OCI-Ly3) [%]	Top (%) level of % cell reduction (OCI-Ly3)
Campath: anti-CD52, clinical grade, indicated by FDA for B-cell Chronic Lymphocytic Leukaemia; positive control [reference compound]	36.00	92.46	7.97	6.72	–	–	–	–	–	–	–	–
B1	–	–	–	–	13.56	74.02	16.98	91.88	-2.97	16.77	10.54	39.84% and 39.94%

Source: patent US20230374148A1, “BINDING MOLECULES THAT MULTIMERISE CD45” (UCB BIOPHARMA SRL, priority 2020, published 2023)
